Substrate in the series: C/C(=C\CNc1ncnc2[nH]cnc12)CO
Nature of the series: purified protein. The following applies: FAD.

Here are results for one protein from publication PMC10610038, “New Insights into the Enhancement of Adventitious Root Formation Using N,N′-Bis(2,3-methylenedioxyphenyl)urea” (Plants, 2023).

B1: ZmCKX1 (cytokinin oxidase/dehydrogenase) (Zea mays) (protein)
chain: LAAGTPALGDDRGRPWPASLAALALDGKLRTDSNATAAASTDFGNITSALPAAVLYPSSTGDLVALLSAANSTPGWPYTIAFRGRGHSLMGQAFAPGGVVVNMASLGDAAAPPRINVSADGRYVDAGGEQVWIDVLRASLARGVAPRSWNDYLYLTVGGTLSNAGISGQAFRHGPQISNVLEMDVITGHGEMVTCSKQLNADLFDAVLGGLGQFGVITRARIAVEPAPARARWVRFVYTDFAAFSADQERLTAPRPGGGGASFGPMSYVEGSVFVNQSLATDLANTGFFTDADVARIVALAGERNATTVYSIEATLNYDNATAAAAAVDQELASVLGTLSYVEGFAFQRDVAYAAFLDRVHGEEVALNKLGLWRVPHPWLNMFVPRSRIADFDRGVFKGILQGTDIVGPLIVYPLNKSMWDDGMSAATPSEDVFYAVSLLFSSVAPNDLARLQEQNRRILRFCDLAGIQYKTYLARHTDRSDWVRHFGAAKWNRFVEMKNKYDPKRLLSPGQDIFN
On to B1, for which the Km came to 6.8 ± 1.3 µM.
